Measured values as given in PMC10312692 (bioRxiv, 2023).

Target: the molecule itself
Assay: SEC

| Protein | binding result |
| --- | --- |
| DISC1 598-854 C680S/C682S/C684S/C698S/C762S/C782S/C844S (domain or fragment) GNHFFTAKDLTEEIRSLTSEREGLEGLLSKLLVLSSRNVKKLGSVKEDYNRLRREVEHQETAYETSVKENTMKYMETLKNKLSSSKSPLLGKVWEADLEASRLLIQSLQLQEARGSLSVEDERQMDDLEGAAPPIPPRLHSEDKRKTPLKVLEEFKTHLIPSLHSAGGEQKEESYILSAELGEKSEDIGKKLLYLEDQLHTAIHSHDEDLIQSLRRELQMVKETLQAMILQLQPAKEAGEREAAASSMTAGVHEAQA | binds |
| DISC1 598-854 C680S/C684S/C698S/C762S/C782S/C844S (domain or fragment) GNHFFTAKDLTEEIRSLTSEREGLEGLLSKLLVLSSRNVKKLGSVKEDYNRLRREVEHQETAYETSVKENTMKYMETLKNKLSSCKSPLLGKVWEADLEASRLLIQSLQLQEARGSLSVEDERQMDDLEGAAPPIPPRLHSEDKRKTPLKVLEEFKTHLIPSLHSAGGEQKEESYILSAELGEKSEDIGKKLLYLEDQLHTAIHSHDEDLIQSLRRELQMVKETLQAMILQLQPAKEAGEREAAASSMTAGVHEAQA | binds |
| DISC1 598-854 C680S/C682S/C698S/C762S/C782S/C844S (domain or fragment) GNHFFTAKDLTEEIRSLTSEREGLEGLLSKLLVLSSRNVKKLGSVKEDYNRLRREVEHQETAYETSVKENTMKYMETLKNKLSSSKCPLLGKVWEADLEASRLLIQSLQLQEARGSLSVEDERQMDDLEGAAPPIPPRLHSEDKRKTPLKVLEEFKTHLIPSLHSAGGEQKEESYILSAELGEKSEDIGKKLLYLEDQLHTAIHSHDEDLIQSLRRELQMVKETLQAMILQLQPAKEAGEREAAASSMTAGVHEAQA | binds |
| DISC1 598-854 C680S/C698S/C762S/C782S/C844S (domain or fragment) GNHFFTAKDLTEEIRSLTSEREGLEGLLSKLLVLSSRNVKKLGSVKEDYNRLRREVEHQETAYETSVKENTMKYMETLKNKLSSCKCPLLGKVWEADLEASRLLIQSLQLQEARGSLSVEDERQMDDLEGAAPPIPPRLHSEDKRKTPLKVLEEFKTHLIPSLHSAGGEQKEESYILSAELGEKSEDIGKKLLYLEDQLHTAIHSHDEDLIQSLRRELQMVKETLQAMILQLQPAKEAGEREAAASSMTAGVHEAQA | binds |
| DISC1 598-854 C682S/C684S/C698S/C762S/C782S/C844S (domain or fragment) GNHFFTAKDLTEEIRSLTSEREGLEGLLSKLLVLSSRNVKKLGSVKEDYNRLRREVEHQETAYETSVKENTMKYMETLKNKLCSSKSPLLGKVWEADLEASRLLIQSLQLQEARGSLSVEDERQMDDLEGAAPPIPPRLHSEDKRKTPLKVLEEFKTHLIPSLHSAGGEQKEESYILSAELGEKSEDIGKKLLYLEDQLHTAIHSHDEDLIQSLRRELQMVKETLQAMILQLQPAKEAGEREAAASSMTAGVHEAQA | binds |
| DISC1 598-854 C684S/C698S/C762S/C782S/C844S (domain or fragment) GNHFFTAKDLTEEIRSLTSEREGLEGLLSKLLVLSSRNVKKLGSVKEDYNRLRREVEHQETAYETSVKENTMKYMETLKNKLCSCKSPLLGKVWEADLEASRLLIQSLQLQEARGSLSVEDERQMDDLEGAAPPIPPRLHSEDKRKTPLKVLEEFKTHLIPSLHSAGGEQKEESYILSAELGEKSEDIGKKLLYLEDQLHTAIHSHDEDLIQSLRRELQMVKETLQAMILQLQPAKEAGEREAAASSMTAGVHEAQA | binds |
| DISC1 598-854 C682S/C698S/C762S/C782S/C844S (domain or fragment) GNHFFTAKDLTEEIRSLTSEREGLEGLLSKLLVLSSRNVKKLGSVKEDYNRLRREVEHQETAYETSVKENTMKYMETLKNKLCSSKCPLLGKVWEADLEASRLLIQSLQLQEARGSLSVEDERQMDDLEGAAPPIPPRLHSEDKRKTPLKVLEEFKTHLIPSLHSAGGEQKEESYILSAELGEKSEDIGKKLLYLEDQLHTAIHSHDEDLIQSLRRELQMVKETLQAMILQLQPAKEAGEREAAASSMTAGVHEAQA | binds |
| DISC1 598-854 C698S/C762S/C782S/C844S (domain or fragment) GNHFFTAKDLTEEIRSLTSEREGLEGLLSKLLVLSSRNVKKLGSVKEDYNRLRREVEHQETAYETSVKENTMKYMETLKNKLCSCKCPLLGKVWEADLEASRLLIQSLQLQEARGSLSVEDERQMDDLEGAAPPIPPRLHSEDKRKTPLKVLEEFKTHLIPSLHSAGGEQKEESYILSAELGEKSEDIGKKLLYLEDQLHTAIHSHDEDLIQSLRRELQMVKETLQAMILQLQPAKEAGEREAAASSMTAGVHEAQA | binds |
